Source: article PMC4833857

Target: Kluyveromyces marxianus Tor (KmTor), full-length (Kluyveromyces marxianus)
Assay: SEC-MALS; 100 µl of 1 mg/ml KmTor-Lst8 complex on Superdex S200 10/300, 50 mM Tris pH 8.8 (23 °C), 300 mM NaCl, 0.3% CHAPS, 1 mM TCEP

Sequence of Kluyveromyces marxianus Tor (KmTor), full-length (Kluyveromyces marxianus) (main, as listed by the source): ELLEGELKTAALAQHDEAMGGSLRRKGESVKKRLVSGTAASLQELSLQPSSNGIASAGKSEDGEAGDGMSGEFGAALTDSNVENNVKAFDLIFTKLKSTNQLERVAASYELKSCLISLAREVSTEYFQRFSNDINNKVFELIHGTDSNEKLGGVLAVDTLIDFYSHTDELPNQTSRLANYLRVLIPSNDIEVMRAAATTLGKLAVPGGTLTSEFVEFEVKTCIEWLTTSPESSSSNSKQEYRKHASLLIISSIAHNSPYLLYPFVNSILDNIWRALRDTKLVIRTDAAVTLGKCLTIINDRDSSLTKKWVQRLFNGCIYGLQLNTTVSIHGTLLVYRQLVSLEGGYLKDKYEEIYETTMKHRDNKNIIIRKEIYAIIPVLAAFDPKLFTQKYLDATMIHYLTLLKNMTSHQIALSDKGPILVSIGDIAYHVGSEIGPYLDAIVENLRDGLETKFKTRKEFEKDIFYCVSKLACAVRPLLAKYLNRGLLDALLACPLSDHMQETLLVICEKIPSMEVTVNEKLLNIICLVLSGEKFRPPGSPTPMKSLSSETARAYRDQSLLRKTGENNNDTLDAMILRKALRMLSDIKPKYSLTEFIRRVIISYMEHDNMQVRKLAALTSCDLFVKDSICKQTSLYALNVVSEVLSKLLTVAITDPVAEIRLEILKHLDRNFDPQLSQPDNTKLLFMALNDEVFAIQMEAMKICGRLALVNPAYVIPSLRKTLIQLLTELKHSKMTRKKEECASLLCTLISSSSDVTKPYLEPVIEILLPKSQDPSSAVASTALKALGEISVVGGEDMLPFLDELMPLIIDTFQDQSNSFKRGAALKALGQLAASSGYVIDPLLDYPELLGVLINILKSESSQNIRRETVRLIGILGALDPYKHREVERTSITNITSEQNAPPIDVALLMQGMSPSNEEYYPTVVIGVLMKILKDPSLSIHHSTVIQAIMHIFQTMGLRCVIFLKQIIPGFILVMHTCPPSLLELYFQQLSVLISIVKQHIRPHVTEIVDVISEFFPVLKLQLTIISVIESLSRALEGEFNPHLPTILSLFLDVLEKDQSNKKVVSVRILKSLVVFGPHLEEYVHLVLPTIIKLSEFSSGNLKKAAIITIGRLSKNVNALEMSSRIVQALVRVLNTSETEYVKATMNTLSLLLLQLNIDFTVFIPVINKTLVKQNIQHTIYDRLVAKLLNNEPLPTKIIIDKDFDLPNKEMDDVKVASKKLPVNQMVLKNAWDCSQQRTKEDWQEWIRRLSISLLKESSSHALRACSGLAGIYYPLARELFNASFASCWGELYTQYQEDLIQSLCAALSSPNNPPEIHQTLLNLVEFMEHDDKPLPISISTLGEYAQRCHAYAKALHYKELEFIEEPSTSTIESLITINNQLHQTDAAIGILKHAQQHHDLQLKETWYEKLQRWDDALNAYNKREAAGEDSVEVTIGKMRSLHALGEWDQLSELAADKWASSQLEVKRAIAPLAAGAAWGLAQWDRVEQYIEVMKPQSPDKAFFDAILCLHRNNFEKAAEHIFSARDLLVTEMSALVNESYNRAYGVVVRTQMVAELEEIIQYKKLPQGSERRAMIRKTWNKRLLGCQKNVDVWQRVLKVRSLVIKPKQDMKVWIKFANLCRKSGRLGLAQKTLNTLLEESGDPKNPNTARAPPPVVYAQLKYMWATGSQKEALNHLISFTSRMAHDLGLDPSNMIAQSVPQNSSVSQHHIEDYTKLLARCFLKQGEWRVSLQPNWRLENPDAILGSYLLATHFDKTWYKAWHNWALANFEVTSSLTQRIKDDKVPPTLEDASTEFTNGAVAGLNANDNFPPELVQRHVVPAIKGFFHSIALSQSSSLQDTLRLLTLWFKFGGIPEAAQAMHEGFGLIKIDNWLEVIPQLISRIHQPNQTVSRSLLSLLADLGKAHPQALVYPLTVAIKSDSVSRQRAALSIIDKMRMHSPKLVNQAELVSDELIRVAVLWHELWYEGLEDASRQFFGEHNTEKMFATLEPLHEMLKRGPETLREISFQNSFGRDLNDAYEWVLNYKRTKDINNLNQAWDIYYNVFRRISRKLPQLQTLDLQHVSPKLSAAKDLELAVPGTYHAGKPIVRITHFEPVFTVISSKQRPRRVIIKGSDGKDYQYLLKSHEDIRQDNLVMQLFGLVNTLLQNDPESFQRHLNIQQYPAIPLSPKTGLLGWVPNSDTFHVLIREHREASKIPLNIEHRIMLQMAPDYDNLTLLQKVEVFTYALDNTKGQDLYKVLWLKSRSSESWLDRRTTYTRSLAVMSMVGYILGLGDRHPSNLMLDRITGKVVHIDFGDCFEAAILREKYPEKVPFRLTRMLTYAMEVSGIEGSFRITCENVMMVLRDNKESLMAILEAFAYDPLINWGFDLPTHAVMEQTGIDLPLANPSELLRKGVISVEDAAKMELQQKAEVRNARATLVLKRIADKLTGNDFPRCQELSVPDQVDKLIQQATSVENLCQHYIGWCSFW

stoichiometry N	Substance
1	Kluyveromyces marxianus Lst8 (KmLst8), full-length (natural protein)
2	Kluyveromyces marxianus Tor (KmTor), full-length
